Measurements reported in paper PMC3338697, “Determination of Membrane Protein Transporter Oligomerization in Native Tissue Using Spatial Fluorescence Intensity Fluctuation Analysis” (PLoS ONE, 2012).

Target: the molecule itself
Assay: fluorescence image moment analysis; CLSM images of rat kidney cryostat sections immunolabelled with primary anti-NBCe1-A antibody and Alexa 488 secondary antibody; proximal tubule basolateral membranes; brightness normalised to non-specifically bound antibody (44±4 iu = 1 MEU)

B1: native NBCe1-A in rat kidney (proximal tubule basolateral cell membranes) (natural protein, rat (endogenous in rat kidney), UniProt Q9JI66-2 1-1035, looked up)
chain: MSTENVEGKPNNLGERGRARSSTFLRVFQPMFNHSIFTSAVSPAAERIRFILGEEDDSPAPPQLFTELDELLAVDGQEMEWKETARWIKFEEKVEQGGERWSKPHVATLSLHSLFELRTCMEKGSIMLDREASSLPQLVEMIADHQIETGLLKPDLKDKVTYTLLRKHRHQTKKSNLRSLADIGKTVSSASRMFSNPDNGSPAMTHRNLTSSSLNDISDKPEKDQLKNKFMKKLPRDAEASNVLVGEVDFLDTPFIAFVRLQQAVMLGALTEVPVPTRFLFILLGPKGKAKSYHEIGRAIATLMSDEVFHDIAYKAKDRHDLIAGIDEFLDEVIVLPPGEWDPAIRIEPPKSLPSSDKRKNMYSGGENVQMNGDTPHDGGHGGGGHGDCEELQRTGRFCGGLIKDIKRKAPFFASDFYDALNIQALSAILFIYLATVTNAITFGGLLGDATDNMQGVLESFLGTAVSGAIFCLFAGQPLTILSSTGPVLVFERLLFNFSKDHSFDYLEFRLWIGLWSAFMCLILVATDASFLVQYFTRFTEEGFSSLISFIFIYDAFKKMIKLADYYPINSDFRVGYNTHFSCACLPPDPVNLSVSNDTTLAPEDLPTVSSTDMYHNATFDWAYLSKKECVKFGGKLVGNNCDFVPDITLMSFILFLGTYTSSMAMKKFKTSRYFPTTARKLISDFAIILSILIFCVIDALVGVDTPKLIVPSEFKPTSPHRGWFVPPFGGNPWWVCLAAAIPALLVTILIFMDQQITAVIVNRKEHKLKKGAGYHLDLFWVAILMVVCSFMALPWYVAATVISIAHIDSLKMETETSAPGEQPKFLGVREQRVTGTLVFILTGLSVFMAPILKFIPMPVLYGVFLYMGVASLNGVQFMDRLKLLLMPLKHQPDFIYLRHVPLRRVHLFTSLQVLCLALLWILKSTVAAIIFPVMILALVAVRKGMDYLFSQHDLSFLDDVIPEKDKKKKEDEKKKKKKKGSLDSDNDDSDCPYSEKVPSIKIPMDITEQQPFLSDNKPLDRERSSTFLERHTSC
notes: Detected by a primary rabbit anti-NBCe1-A antibody and an Alexa 488 secondary antibody; also called endogenous NBCe1-A; immunolabeled NBCe1-A; source: endogenous, rat kidney cryostat sections (bought: Zyagen RF-901)
stoichiometry N: 2
